Key:
Test in all cases: cell-based or functional assay
[1] = molecular target: HIV-1 Env of pseudovirus 7030102001E5(Rev-) (HIV-1)
[2] = molecular target: HIV-1 Env of pseudovirus 620345.c01 (HIV-1)
[3] = molecular target: HIV-1 Env of pseudovirus 6244_13_B5_4576 (HIV-1)
[4] = molecular target: HIV-1 Env of pseudovirus CNE30 (HIV-1)
[5] = molecular target: HIV-1 Env of pseudovirus HIV-001428-2.42 (HIV-1)
[6] = molecular target: HIV-1 Env of pseudovirus 6540.v4.c1 (HIV-1)
[7] = molecular target: HIV-1 Env of pseudovirus A07412M1.vrc12 (HIV-1)
[8] = molecular target: HIV-1 Env of pseudovirus THRO4156.18 (HIV-1)
[9] = molecular target: HIV-1 Env of pseudovirus X1193_c1 (HIV-1)
[10] = molecular target: HIV-1 Env of pseudovirus T257-31 (HIV-1)
[11] = molecular target: HIV-1 Env of pseudovirus 3103.v3.c10 (HIV-1)
[12] = molecular target: HIV-1 Env of pseudovirus 1006_11_C3_1601 (HIV-1)
[13] = molecular target: HIV-1 Env of pseudovirus QH0692.42 (HIV-1)
[14] = molecular target: HIV-1 Env of pseudovirus SC05_8C11_2344 (HIV-1)
[15] = molecular target: HIV-1 Env of pseudovirus CNE17 (HIV-1)
[16] = molecular target: HIV-1 Env of pseudovirus R1166.c01 (HIV-1)
[17] = molecular target: HIV-1 Env of pseudovirus BJOX028000.10.3 (HIV-1)
[18] = molecular target: HIV-1 Env of pseudovirus Du172.17 (HIV-1)
[19] = molecular target: HIV-1 Env of pseudovirus CNE21 (HIV-1)
[20] = molecular target: HIV-1 Env of pseudovirus R3265.c06 (HIV-1)
[21] = molecular target: HIV-1 Env of pseudovirus Du422.1 (HIV-1)
[22] = molecular target: HIV-1 Env of pseudovirus T255-34 (HIV-1)
[23] = molecular target: HIV-1 Env of pseudovirus 3016.v5.c45 (HIV-1)
[24] = molecular target: HIV-1 Env of pseudovirus 1012_11_TC21_3257 (HIV-1)
[25] = molecular target: HIV-1 Env of pseudovirus TRO.11 (HIV-1)
[26] = molecular target: HIV-1 Env of pseudovirus CNE8 (HIV-1)
[27] = molecular target: HIV-1 Env of pseudovirus 89-F1_2_25 (HIV-1)
[28] = molecular target: HIV-1 Env of pseudovirus 211-9 (HIV-1)
[29] = molecular target: HIV-1 Env of pseudovirus 1394C9G1(Rev-) (HIV-1)
[30] = molecular target: HIV-1 Env of pseudovirus ZM214M.PL15 (HIV-1)
[31] = molecular target: HIV-1 Env of pseudovirus Q842.d12 (HIV-1)
[32] = molecular target: HIV-1 Env of pseudovirus CNE5 (HIV-1)
[33] = molecular target: HIV-1 Env of pseudovirus 6041.v3.c23 (HIV-1)
[34] = molecular target: HIV-1 Env of pseudovirus REJO4541.67 (HIV-1)
[35] = molecular target: HIV-1 Env of pseudovirus HIV-16845-2.22 (HIV-1)
[36] = molecular target: HIV-1 Env of pseudovirus Ce2060_G9 (HIV-1)
[37] = molecular target: HIV-1 Env of pseudovirus X1632_S2_B10 (HIV-1)

PGT121 (antibody)
IC50 [1]: 0.009 µg/mL
IC80 [1]: 0.027 µg/mL
IC50 [2]: > 50 µg/mL
IC80 [2]: > 50 µg/mL
IC50 [3]: 0.061 µg/mL
IC80 [3]: 0.347 µg/mL
IC50 [4]: 0.078 µg/mL
IC80 [4]: 0.291 µg/mL
IC50 [5]: 0.014 µg/mL
IC80 [5]: 0.051 µg/mL
IC50 [6]: > 50 µg/mL
IC80 [6]: > 50 µg/mL
IC50 [7]: 0.009 µg/mL
IC80 [7]: 0.075 µg/mL
IC50 [8]: > 50 µg/mL
IC80 [8]: > 50 µg/mL
IC80 [9]: 0.086 µg/mL
IC50 [10]: > 50 µg/mL
IC80 [10]: > 50 µg/mL
IC50 [11]: 0.009 µg/mL
IC80 [11]: 0.028 µg/mL
IC50 [12]: 0.002 µg/mL
IC80 [12]: 0.007 µg/mL
IC50 [13]: 0.302 µg/mL
IC80 [13]: 2.31 µg/mL
IC50 [14]: 0.019 µg/mL
IC80 [14]: 0.071 µg/mL
IC50 [15]: 7.6 µg/mL
IC80 [15]: > 50 µg/mL
IC50 [16]: > 50 µg/mL
IC80 [16]: > 50 µg/mL
IC50 [17]: > 50 µg/mL
IC80 [17]: > 50 µg/mL
IC50 [18]: 0.033 µg/mL
IC80 [18]: 0.257 µg/mL
IC50 [19]: 0.007 µg/mL
IC80 [19]: 0.035 µg/mL
IC50 [20]: > 50 µg/mL
IC80 [20]: > 50 µg/mL
IC50 [21]: 0.039 µg/mL
IC80 [21]: 0.143 µg/mL
IC50 [22]: 18.7 µg/mL
IC80 [22]: > 50 µg/mL
IC50 [23]: > 50 µg/mL
IC80 [23]: > 50 µg/mL
IC50 [24]: 0.003 µg/mL
IC80 [24]: 0.017 µg/mL
IC50 [25]: 0.005 µg/mL
IC80 [25]: 0.025 µg/mL
IC50 [26]: > 50 µg/mL
IC80 [26]: > 50 µg/mL
IC50 [27]: > 50 µg/mL
IC80 [27]: > 50 µg/mL
IC50 [28]: 0.852 µg/mL
IC80 [28]: 4.2 µg/mL
IC50 [29]: 0.264 µg/mL
IC80 [29]: 1.95 µg/mL
IC50 [30]: 0.46 µg/mL
IC80 [30]: 2.04 µg/mL
IC50 [31]: 0.005 µg/mL
IC50 [32]: > 50 µg/mL
IC80 [32]: > 50 µg/mL
IC50 [33]: > 50 µg/mL
IC80 [33]: > 50 µg/mL
IC50 [34]: 4.77 µg/mL
IC80 [34]: > 50 µg/mL
IC50 [35]: 3.97 µg/mL
IC80 [35]: 44.6 µg/mL
IC50 [36]: > 50 µg/mL
IC80 [36]: > 50 µg/mL
IC50 [37]: > 50 µg/mL
IC80 [37]: > 50 µg/mL

PGT128 (antibody)
IC50 [1]: 0.007 µg/mL
IC80 [1]: 0.022 µg/mL
IC50, titer in TZM.bl cells [2]: > 50 µg/mL
IC80, titer in TZM.bl cells [2]: > 50 µg/mL
IC50 [3]: 0.02 µg/mL
IC80 [3]: 0.076 µg/mL
IC50 [4]: 2.06 µg/mL
IC80 [4]: 12.6 µg/mL
IC50 [5]: 0.026 µg/mL
IC80 [5]: 0.095 µg/mL
IC50, titer in TZM.bl cells [6]: 11.8 µg/mL
IC80, titer in TZM.bl cells [6]: > 50 µg/mL
IC50, titer in TZM.bl cells [7]: > 50 µg/mL
IC80, titer in TZM.bl cells [7]: > 50 µg/mL
IC50 [8]: > 50 µg/mL
IC80 [8]: > 50 µg/mL
IC50, titer in TZM.bl cells [9]: > 50 µg/mL
IC80, titer in TZM.bl cells [9]: > 50 µg/mL
IC50 [10]: > 50 µg/mL
IC80 [10]: > 50 µg/mL
IC50, titer in TZM.bl cells [11]: 0.014 µg/mL
IC80, titer in TZM.bl cells [11]: 0.033 µg/mL
IC50 [12]: 0.011 µg/mL
IC80 [12]: 0.04 µg/mL
IC50 [13]: 0.029 µg/mL
IC80 [13]: 0.081 µg/mL
IC50 [14]: 0.017 µg/mL
IC80 [14]: 0.041 µg/mL
IC50 [15]: 0.432 µg/mL
IC80 [15]: 1.99 µg/mL
IC50, titer in TZM.bl cells [16]: > 50 µg/mL
IC80, titer in TZM.bl cells [16]: > 50 µg/mL
IC50, titer in TZM.bl cells [17]: 0.024 µg/mL
IC80, titer in TZM.bl cells [17]: 0.07 µg/mL
IC50 [18]: 0.028 µg/mL
IC80 [18]: 0.08 µg/mL
IC50 [19]: 0.01 µg/mL
IC80 [19]: 0.026 µg/mL
IC50, titer in TZM.bl cells [20]: > 50 µg/mL
IC80, titer in TZM.bl cells [20]: > 50 µg/mL
IC50 [21]: 0.039 µg/mL
IC80 [21]: 0.113 µg/mL
IC50, titer in TZM.bl cells [22]: > 50 µg/mL
IC80, titer in TZM.bl cells [22]: > 50 µg/mL
IC50, titer in TZM.bl cells [23]: > 50 µg/mL
IC80, titer in TZM.bl cells [23]: > 50 µg/mL
IC50 [24]: 0.011 µg/mL
IC80 [24]: 0.033 µg/mL
IC50 [25]: 0.019 µg/mL
IC80 [25]: 0.045 µg/mL
IC50, titer in TZM.bl cells [26]: 0.019 µg/mL
IC80, titer in TZM.bl cells [26]: 0.052 µg/mL
IC50, titer in TZM.bl cells [27]: > 50 µg/mL
IC80, titer in TZM.bl cells [27]: > 50 µg/mL
IC50, titer in TZM.bl cells [28]: 0.062 µg/mL
IC80, titer in TZM.bl cells [28]: 0.215 µg/mL
IC50 [29]: 0.011 µg/mL
IC80 [29]: 0.034 µg/mL
IC50 [30]: 1.5 µg/mL
IC80 [30]: 29.4 µg/mL
IC50 [31]: 0.008 µg/mL
IC80 [31]: 0.102 µg/mL
IC50, titer in TZM.bl cells [32]: 0.018 µg/mL
IC80, titer in TZM.bl cells [32]: 0.253 µg/mL
IC50, titer in TZM.bl cells [33]: > 50 µg/mL
IC80, titer in TZM.bl cells [33]: > 50 µg/mL
IC50 [34]: > 50 µg/mL
IC80 [34]: > 50 µg/mL
IC50 [35]: 0.181 µg/mL
IC80 [35]: 0.834 µg/mL
IC50 [36]: > 50 µg/mL
IC80 [36]: > 50 µg/mL
IC50, titer in TZM.bl cells [37]: > 50 µg/mL
IC80, titer in TZM.bl cells [37]: > 50 µg/mL
